# Laboratory results from publication PMC4477659.
# pKd: −log10 of the molar value.
# Key:
# Experiment in all cases: filter binding
# Details in all cases: Filter binding: 10 mM HEPES, 3 mM MgCl2, 1 mM DTT, 5% glycerol, 100 mM KCl, 0.05 mg/ml tRNA, 5 uM BSA, 30 C 15 min; UV crosslinking: 10 mM HEPES pH 7.9, 3 mM …
# [1] = tested on: PTBP3 AUG11 isoform del1-103 (human), O95758-5
# [2] = tested on: T1, PTBP3 AUG4 isoform del1-31 (human), O95758-5
# T1 sequence: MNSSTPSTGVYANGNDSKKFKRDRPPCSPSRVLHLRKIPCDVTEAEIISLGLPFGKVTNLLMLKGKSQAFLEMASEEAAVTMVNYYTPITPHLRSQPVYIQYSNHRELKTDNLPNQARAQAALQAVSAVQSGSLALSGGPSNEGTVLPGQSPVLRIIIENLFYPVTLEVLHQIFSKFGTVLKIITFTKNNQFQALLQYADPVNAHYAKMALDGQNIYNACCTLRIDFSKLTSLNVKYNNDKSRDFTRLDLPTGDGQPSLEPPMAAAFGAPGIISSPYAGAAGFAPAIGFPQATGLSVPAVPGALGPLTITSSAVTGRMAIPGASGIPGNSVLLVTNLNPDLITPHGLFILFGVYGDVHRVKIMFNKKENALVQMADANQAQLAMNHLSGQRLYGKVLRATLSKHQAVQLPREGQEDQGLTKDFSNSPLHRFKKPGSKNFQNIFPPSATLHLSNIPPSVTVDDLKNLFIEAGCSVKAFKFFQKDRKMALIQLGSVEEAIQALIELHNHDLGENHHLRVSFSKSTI
# [3] = tested on: PTBP3 ΔRRM1 (human), O95758-5
substance,measurement,setting,value
EMCV IRES,pKd,[1],8.37
same,pKd,[2],8.19
same,pKd,[3],8.19
MTDH exon 7 RNA,pKd,[1],7.20
same,pKd,[2],7.04
same,pKd,[3],7.04
CUCUCUCUCUCUCUCUCUCUCUCU [[CUCUCU]4],pKd,[1],7.36
same,pKd,[2],7.46
same,pKd,[3],7.12
PV IRES,pKd,[1],7.63
same,pKd,[2],7.36
same,pKd,[3],7.63
